Changes are numbered by the printed parent chain. Names and notes keep the numbering of the source. Each block holds one molecule with its values, some of them ahead of it.
Assays:
SK-MES-1 cells = assay: Apoptosis bioassay with crystal violet staining; type: cell-based, human; settings: 24 hours, FIGS. 17 and 18
Protocol: SK-MES-1 human lungcarcinomacells (ATCCHTB 58) were culturedin DMEM:Ham'sF-12 (50:50) media supplemented with 10% FBS, 2 mM L-glutamine, 100 U/ml penicillin, and 100 microgram streptomycin. SK-MES-1 cells were seeded in 96-well Falcon tissue culture treated microplates in a volume of 0.1 ml at a density of 4.0×10^4 cells/well and allowed to attach overnight at 37° C. Apoptosis was induced by adding the various Apo-2L substitutional variants or Apo-2L (consisting of amino acids 91-281 of FIG. 1A; referred to as Apo-2L.2) for 24 hours. Following treatment with the test proteins, the media was removed and the wells were stained for 15 minutes with a 0.5% solution of crystal violet in methanol. The cell number was determined by measuring optical density of the dry plates at 540 nm using a SLT 340 ATC plate reader (Salzburg, Austria).

DR5 = target: T1, DR5 (Homo sapiens, UniProt O14763); assay: BIAcore kinetic binding analysis; settings: IgG-receptor fusion DR5 immobilized; significant = >2-fold; FIG. 19
T1 construct: Each of the Apo-2L receptor proteins were prepared as immuno adhesin sessentially as described in Ashkenazi et al; made in house
Protocol: (§1) For comparison, Apo-2L, consisting of amino acids 91-281 was also tested in the BIAcore for binding to the IgG-receptor fusion molecules. Each of the Apo-2L receptor proteins were prepared as immuno adhesin sessentially as described in Ashkenazi et al., Proc. Natl. Acad. Sci., 88:10535-10539 (1991). The IgG-receptor fusion molecules were immobilized to the CM5 BIAcore chip, research grade (Pharmacia), using NHS-EDC amine coupling chemistry. The Apo-2L alanine-substituted proteins were serially diluted 2-fold from 500 nM to 15.625 nM in the BIAcore running buffer, PBS/0.05% Tween 20, and passed across the sensor chip surface with immobilized receptor. Specific kinetic binding parameters were used to determine the KD value using the BIAcore evaluation software (according to manufacturer's instructions).

OPG = target: T2, OPG (Homo sapiens, UniProt O00300); assay: BIAcore kinetic binding analysis; settings: OPGR-IgG immobilized; FIG. 19
T2 construct: made in house
T2 sequence (O00300 22-401): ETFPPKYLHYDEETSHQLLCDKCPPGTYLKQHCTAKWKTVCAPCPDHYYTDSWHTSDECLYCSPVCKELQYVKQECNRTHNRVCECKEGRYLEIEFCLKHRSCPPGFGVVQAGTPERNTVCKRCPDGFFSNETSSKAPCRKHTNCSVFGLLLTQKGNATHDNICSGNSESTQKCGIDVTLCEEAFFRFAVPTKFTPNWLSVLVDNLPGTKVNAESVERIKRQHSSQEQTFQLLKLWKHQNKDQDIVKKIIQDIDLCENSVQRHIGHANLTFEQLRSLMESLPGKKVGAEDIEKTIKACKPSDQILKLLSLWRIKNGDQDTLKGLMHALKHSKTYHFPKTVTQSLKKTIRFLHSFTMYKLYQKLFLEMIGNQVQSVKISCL
Protocol: as §1

DR4 = target: T3, DR4 (Homo sapiens, UniProt O00220); assay: BIAcore kinetic binding analysis; settings: IgG-receptor fusion DR4 immobilized; significant = >2-fold; FIG. 19
T3 construct: Each of the Apo-2L receptor proteins were prepared as immuno adhesin sessentially as described in Ashkenazi et al; made in house
Protocol: as §1

DcR2 = target: T4, DcR2 (Homo sapiens, UniProt Q9UBN6); assay: BIAcore kinetic binding analysis; settings: IgG-receptor fusion DcR2 immobilized; significant = >2-fold; FIG. 19
T4 construct: Each of the Apo-2L receptor proteins were prepared as immuno adhesin sessentially as described in Ashkenazi et al; made in house
T4 sequence (Q9UBN6 56-211 limits assumed): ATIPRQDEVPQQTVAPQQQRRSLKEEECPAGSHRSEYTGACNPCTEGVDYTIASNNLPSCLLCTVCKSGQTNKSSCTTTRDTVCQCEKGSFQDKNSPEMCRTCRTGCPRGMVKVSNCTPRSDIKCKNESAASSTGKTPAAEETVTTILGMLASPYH
Protocol: as §1

T1 sequence (O14763 56-184 limits assumed): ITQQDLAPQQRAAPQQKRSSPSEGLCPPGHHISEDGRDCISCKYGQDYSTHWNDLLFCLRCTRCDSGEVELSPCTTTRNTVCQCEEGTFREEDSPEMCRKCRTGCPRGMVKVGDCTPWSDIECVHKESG
T3 sequence (O00220 24-239 limits assumed): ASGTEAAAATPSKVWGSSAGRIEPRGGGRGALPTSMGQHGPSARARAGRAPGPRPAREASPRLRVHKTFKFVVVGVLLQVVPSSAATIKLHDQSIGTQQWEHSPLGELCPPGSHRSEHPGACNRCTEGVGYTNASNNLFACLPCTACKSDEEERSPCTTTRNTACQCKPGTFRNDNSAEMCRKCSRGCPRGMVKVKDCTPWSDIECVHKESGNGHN

change in binding (KD) compared to Apo-2L.2 (DR5): no significant change | binding to OPGR-IgG compared to Apo-2L.2 (OPG): tighter binding | change in binding (KD) compared to Apo-2L.2 (DR4): no significant change | change in binding (KD) compared to Apo-2L.2 (DcR2): no significant change
B1: D218A: Apo-2 ligand amino acids 91-281 with aspartic acid at position 218 substituted by alanine (protein)
chain: MAMMEVQGGPSLGQTCVLIVIFTVLLQSLCVAVTYVYFTNELKQMQDKYSKSGIACFLKEDDSYWDPNDEESMNSPCWQVKWQLRQLVRKMILRTSEETISTVQEKQQNISPLVRERGPQRVAAHITGTRGRSNTLSSPNSKNEKALGRKINSWESSRSGHSFLSNLHLRNGELVIHEKGFYYIYSQTYFRFQEEIKENTKNDKQMVQYIYKYTSYPAPILLMKSARNSCWSKDAEYGLYSIYQGGIFELKENDRIFVSVTNEHLIDMDHEASFFGAFLVG
increased apoptosis-inducing activity when compared to Apo-2L.2 (SK-MES-1 cells): approximately 3 fold

change in binding (KD) compared to Apo-2L.2 (DR5): no significant change | binding to OPGR-IgG compared to Apo-2L.2 (OPG): tighter binding | change in binding (KD) compared to Apo-2L.2 (DR4): no significant change | change in binding (KD) compared to Apo-2L.2 (DcR2): no significant change
B2: D269A: Apo-2 ligand amino acids 91-281 with aspartic acid at position 269 substituted by alanine (protein)
chain: B1 chain with A218D, D269A
increased apoptosis-inducing activity when compared to Apo-2L.2 (SK-MES-1 cells): ~7 fold
